From patent publication US20150086555A1

Columns and labels:
Conditions in all cases: remark: other sources report otherwise
[1] = molecular target: recombinant soluble homotrimeric HA of A/Anhui/1/05 (H5N1) (Influenza A virus A/Anhui/1/2005(H5N1)); test: HA microarray, BCC supernatant
[2] = molecular target: recombinant soluble homotrimeric HA of A/California/4/09 (H1N1) (Influenza A virus A/California/04/2009(H1N1)); test: HA microarray, BCC supernatant
[3] = molecular target: recombinant soluble homotrimeric HA of A/Hong Kong/2108/03 (H9N2) (Influenza A virus A/HK/2108/2003(H9N2)); test: HA microarray, BCC supernatant
[4] = molecular target: recombinant soluble homotrimeric HA of A/Indonesia/5/05 (H5N1) (Influenza A virus A/Indonesia/5/2005(H5N1)); test: HA microarray, BCC supernatant
[5] = molecular target: recombinant soluble homotrimeric HA of A/Japan/305/57 (H2N2) (Influenza A virus A/Japan/305/1957(H2N2)); test: HA microarray, BCC supernatant
[6] = molecular target: recombinant soluble homotrimeric HA of A/Solomon Islands/3/06 (H1N1) (Influenza A virus A/Solomon Islands/3/2006(H1N1)); test: HA microarray, BCC supernatant
[7] = molecular target: recombinant soluble homotrimeric HA of A/Vietnam/1203/04 (H5N1) (Influenza A virus A/VietNam/1203/2004(H5N1)); test: HA microarray, BCC supernatant
[8] = molecular target: recombinant soluble homotrimeric HA of A/Wisconsin/67/05 (H3N2) (Influenza A virus A/Wisconsin/67/2005(H3N2)); test: HA microarray, BCC supernatant
[9] = molecular target: recombinant soluble homotrimeric HA of A/chicken/Vietnam/NCVD-016/08 (H5N1) (Influenza A virus A/chicken/Vietnam/NCVD-016/2008(H5N1)); test: HA microarray, BCC supernatant
[10] = molecular target: recombinant soluble homotrimeric HA of A/duck/Yangzhou/02/05 (H8N4) (Influenza A virus A/duck/Yangzhou/02/2005(H8N4)); test: HA microarray, BCC supernatant
[11] = molecular target: recombinant soluble homotrimeric HA of A/northern shoveler/California/HKWF115/07 (H6) (Influenza A virus A/northern shoveler/California/HKWF115/2007(H6N1)); test: HA microarray, BCC supernatant
[12] = molecular target: recombinant homotrimeric HA A/California/4/09 H1N1 (Influenza A virus A/California/04/2009(H1N1)); test: protein microarray, purified IgG, trimeric HA
[13] = molecular target: recombinant homotrimeric HA A/Egypt/3300-NAMRU3/08 H5N1 (Influenza A virus A/Egypt/3300-NAMRU3/2008(H5N1)); test: protein microarray, purified IgG, trimeric HA
[14] = molecular target: recombinant homotrimeric HA A/Hong Kong/1073/99 H9N2 (Influenza A virus A/Hong Kong/1073/99 (H9N2)); test: protein microarray, purified IgG, trimeric HA
[15] = molecular target: recombinant homotrimeric HA A/Hong Kong/156/97 H5N1 (Influenza A virus A/Hong Kong/156/97 (H5N1)); test: protein microarray, purified IgG, trimeric HA
[16] = molecular target: recombinant homotrimeric HA A/Hong Kong/2108/03 H9N2 (Influenza A virus A/HK/2108/2003(H9N2)); test: protein microarray, purified IgG, trimeric HA
[17] = molecular target: recombinant homotrimeric HA A/Indonesia/5/05 H5N1 (Influenza A virus A/Indonesia/5/2005(H5N1)); test: protein microarray, purified IgG, trimeric HA
[18] = molecular target: recombinant homotrimeric HA A/Japan/305/57 H2N2 (Influenza A virus A/Japan/305/1957(H2N2)); test: protein microarray, purified IgG, trimeric HA
[19] = molecular target: recombinant homotrimeric HA A/Netherlands/219/03 H7N7 (Influenza A virus A/Netherlands/219/03(H7N7)); test: protein microarray, purified IgG, trimeric HA
[20] = molecular target: recombinant homotrimeric HA A/Solomon Islands/3/06 H1N1 (Influenza A virus A/Solomon Islands/3/2006(H1N1)); test: protein microarray, purified IgG, trimeric HA
[21] = molecular target: recombinant homotrimeric HA A/South Carolina/1/18 H1N1 (Influenza A virus A/South Carolina/1/18 (H1N1)); test: protein microarray, purified IgG, trimeric HA
[22] = molecular target: recombinant homotrimeric HA A/Vietnam/1203/04 H5N1 (Influenza A virus A/VietNam/1203/2004(H5N1)); test: protein microarray, purified IgG, trimeric HA
[23] = molecular target: recombinant homotrimeric HA A/chicken/Vietnam/NCVD-016/08 H5N1 (Influenza A virus A/chicken/Vietnam/NCVD-016/2008(H5N1)); test: protein microarray, purified IgG, trimeric HA
[24] = molecular target: recombinant homotrimeric HA A/northern shoveler/California/HKWF115/07 H6N4 (Influenza A virus A/northern shoveler/California/HKWF115/2007(H6N1)); test: protein microarray, purified IgG, trimeric HA
[25] = molecular target: recombinant soluble homotrimeric HA of A/Netherlands/219/03 (H7N7) (Influenza A virus A/Netherlands/219/03(H7N7)); test: HA microarray, BCC supernatant
[26] = molecular target: recombinant homotrimeric HA A/Anhui/1/05 H5N1 (Influenza A virus A/Anhui/1/2005(H5N1)); test: protein microarray, purified IgG, trimeric HA

Binder	Trimeric HA Binding: RLU [1]	Trimeric HA Binding: RLU [2]	Trimeric HA Binding: RLU [3]	Trimeric HA Binding: RLU [4]	Trimeric HA Binding: RLU [5]	Trimeric HA Binding: RLU [6]	Trimeric HA Binding: RLU [7]	Trimeric HA Binding: RLU [9]	Trimeric HA Binding: RLU [11]	Trimeric HA Binding: RLU [12]	Trimeric HA Binding: RLU [13]	Trimeric HA Binding: RLU [14]	Trimeric HA Binding: RLU [15]	Trimeric HA Binding: RLU [16]	Trimeric HA Binding: RLU [17]	Trimeric HA Binding: RLU [18]	Trimeric HA Binding: RLU [20]	Trimeric HA Binding: RLU [21]	Trimeric HA Binding: RLU [22]	Trimeric HA Binding: RLU [23]	further results
TCN-538 (3206_O17) (antibody, V domains shown) VH: QITLKESGPTLVKPTQTLTLTCVFSGFSLSITGVRVGWIRQPPGKALEWLALISWDDEKHYSPSLQSRLTITKDTSKNQVVLTMTNLDPVDTATYYCARSTDRGHVLRYFGWMLPGDAFDVWGQGTMVTVSS VL: DIVMTQSPDFLPVSLGERATINCKSSQRVLYSSNNKNYLAWYQLKPGQPPKLIIYWASTRESGVPDRFSGSGSGTEFTLTISSLQAEDVAVYYCQQYYSRPYTFGQGTKLEIK	689 RLU	13800 RLU	109 RLU	26400 RLU	43000 RLU	33200 RLU	60 RLU	37300 RLU	17400 RLU	4810 RLU	7290 RLU	1270 RLU	7080 RLU	172 RLU	7450 RLU	20500 RLU	9740 RLU	6770 RLU	14000 RLU	1060 RLU	Trimeric HA Binding: RLU [8]: 6900 RLU; Trimeric HA Binding: RLU [10]: 6120 RLU; Trimeric HA Binding: RLU [19]: 446 RLU; Trimeric HA Binding: RLU [24]: 11400 RLU
TCN-523 (5248_A17) (antibody, V domains shown) VH: QVQLVQSGAEVKKPGSSVKVSCKASGGSFSNYAFSWVRQAPGQGLEWMGGTIPLLGTTNYAQKFQGRVTISADQFTSTAYMELGSLRSEDTAVYYCTRRKMTTAFDSWGQGTLVTVSS VL: QPVLTQPPSASASLGASVTLTCTLSSAYSNYKVDWYQQRPGKGPRFVMRVGTGGIVGSKGDGIPDRFSVLGSGLNRYLTIKNIQEEDESDYHCGADHGSGSNFVSPYVFGGGTKLTVL	5700 RLU	34700 RLU	189 RLU	45800 RLU	5110 RLU	37900 RLU	3380 RLU	48900 RLU	46900 RLU	19500 RLU	21300 RLU	2130 RLU	5810 RLU	163 RLU	16900 RLU	15300 RLU	5130 RLU	9720 RLU	20000 RLU	4960 RLU	Trimeric HA Binding: RLU [25]: 2340 RLU; Trimeric HA Binding: RLU [26]: 7240 RLU; Trimeric HA Binding: RLU [24]: 3370 RLU
